Data: paper PMC4942345 (Organic & biomolecular chemistry, 2016)
Primed or numbered codes have the meaning given here. Where no end group is shown, it is not given here. [ ]: non-standard residue; d: D form. The star is where a group is joined. 4‑CBS″ = 4-carboxybenzylsulfonamide on the N-terminus, O=C(O)c1ccc(CS(=O)(=O)*)cc1; 4‑CBS = 4-carboxybenzylsulfonamide, O=C(O)c1ccc(CS(=O)(=O)*)cc1

biological target: human carbonic anhydrase II (human, UniProt P00918 1-260); experiment: SPR

For {4‑CBS″}-[dD][dL][dE][dE][dY]-NH2 [4-CBS-dleey], which Kd is on record?
Its Kd is 88 nM.

How did the Kd turn out when {4‑CBS}-LKEYD [4-CBS-LKEYD] was run?
The Kd was 59 nM.

For {4‑CBS″}-[dD][dV][dE][dY][dE]-NH2 [4-CBS-dveye], which Kd is on record?
The Kd was 97 nM.

{4‑CBS″}-[dD][dV][dD][dD][dL]-NH2 [4-CBS-dvddl] was tested. Which Kd did it give?
The Kd was 156 nM.

{4‑CBS}-[dD][dL][dD][dD][dW] [4-CBS-dlddw] was tested. Which Kd did it give?
The Kd was 22 nM.

For {4‑CBS″}-[dD][dV][dD][dD][dY]-NH2 [4-CBS-dvddy], which Kd is on record?
The Kd was 82 nM.

Which Kd does the source give for {4‑CBS″}-[dD][dV][dE][dV][dL]-NH2 [4-CBS-dvevl] here?
Its Kd is 82 nM.

{4‑CBS}-[dD][dV][dD][dV][dL] [4-CBS-dvdvl] was tested. Which Kd did it give?
The Kd was 82 nM.

{4‑CBS″}-[dD][dV][dD][dE][dY]-NH2 [4-CBS-dvdey] was tested. Which Kd did it give?
The Kd was 63 nM.

{4‑CBS″}-[dD][dA][dD][dV][dL]-NH2 [4-CBS-dadvl] was tested. Which Kd did it give?
The Kd was 185 nM.

biological target: human carbonic anhydrase I (human, UniProt P00915 1-261); experiment: SPR
Sequence (P00915 whole entry): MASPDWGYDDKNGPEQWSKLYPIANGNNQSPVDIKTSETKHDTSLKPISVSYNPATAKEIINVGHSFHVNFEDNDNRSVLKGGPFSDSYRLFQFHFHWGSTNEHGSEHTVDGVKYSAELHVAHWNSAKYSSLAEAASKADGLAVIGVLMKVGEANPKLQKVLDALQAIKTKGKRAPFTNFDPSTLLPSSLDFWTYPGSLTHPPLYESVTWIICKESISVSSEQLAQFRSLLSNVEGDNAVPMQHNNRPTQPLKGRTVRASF

With {4‑CBS″}-[dD][dL][dE][dE][dY]-NH2 [4-CBS-dleey] as the binder, how does the Kd read?
Its Kd is 116 nM.

{4‑CBS}-LKEYD [4-CBS-LKEYD] was tested. Which Kd did it give?
The Kd was 81 nM.

{4‑CBS″}-[dD][dV][dE][dY][dE]-NH2 [4-CBS-dveye] was tested. Which Kd did it give?
Its Kd is 121 nM.

With {4‑CBS″}-[dD][dV][dD][dD][dL]-NH2 [4-CBS-dvddl] as the binder, how does the Kd read?
Its Kd is 137 nM.

How did the Kd turn out when {4‑CBS}-[dD][dL][dD][dD][dW] [4-CBS-dlddw] was run?
The Kd was 25 nM.

With {4‑CBS″}-[dD][dV][dD][dD][dY]-NH2 [4-CBS-dvddy] as the binder, how does the Kd read?
Its Kd is 102 nM.

{4‑CBS″}-[dD][dV][dE][dV][dL]-NH2 [4-CBS-dvevl] was tested. Which Kd did it give?
Its Kd is 151 nM.

Which Kd does the source give for {4‑CBS}-[dD][dV][dD][dV][dL] [4-CBS-dvdvl] here?
Its Kd is 83 nM.

Which Kd does the source give for {4‑CBS″}-[dD][dV][dD][dE][dY]-NH2 [4-CBS-dvdey] here?
Its Kd is 55 nM.

Which Kd does the source give for {4‑CBS″}-[dD][dA][dD][dV][dL]-NH2 [4-CBS-dadvl] here?
The Kd was 130 nM.
